Tests used:
Type in all cases: cell-based, Saccharomyces cerevisiae
[1] = system: ABP1; assay: DHFR-PCA on solid medium, bait ABP1 (Fig. 1B); details: bait ABP1, label = prey; for medrep (log2 median colony size normalized to plate background, PCA score): 2-4 replicates; for Ratio (SH3-deleted/WT medrep): only significant differences showed, PPIs completely lost have a ratio of 0.1 and the gained PPIs 2.5
Excerpt: (§1) Supplement 41467_2021_21873_MOESM8_ESM.xlsx, sheet "Fig1B" | column: medsize; medrep; Ratio; Score

[2] = system: BEM1-2; assay: DHFR-PCA on solid medium, bait BEM1-2 (Fig. 1B); details: bait BEM1-2, label = prey; for medrep (log2 median colony size normalized to plate background, PCA score): 2-8 replicates; for Ratio (SH3-deleted/WT medrep): only significant differences showed, PPIs completely lost have a ratio of 0.1 and the gained PPIs 2.5
Excerpt: as §1

[3] = system: BEM1-1; assay: DHFR-PCA on solid medium, bait BEM1-1 (Fig. 1B); details: bait BEM1-1, label = prey; for medrep (log2 median colony size normalized to plate background, PCA score): 2-8 replicates; for Ratio (SH3-deleted/WT medrep): only significant differences showed, PPIs completely lost have a ratio of 0.1 and the gained PPIs 2.5
Excerpt: as §1

Molecule | medrep (log2 median colony size normalized to plate background, PCA score) [1] | Ratio (SH3-deleted/WT medrep) [1] | medrep (log2 median colony size normalized to plate background, PCA score) [2] | Ratio (SH3-deleted/WT medrep) [2] | medrep (log2 median colony size normalized to plate background, PCA score) [3] | Ratio (SH3-deleted/WT medrep) [3]
YPR055W (protein, UniProt P32855 1-1065, looked up) Exocyst complex component SEC8: MDYLKPAQKGRRRGLSINSLSETQQSAMNSSLDHLQNDLNRINLQWNRILSDNTNPLELALAFLDDTSVGLGHRYEEFNQLKSQIGSHLQDVVNEHSQVFNTNVASYGKAVSSIMQAQEQTLNLKNCLKEANEKITTDKGSLQELNDNNLKYTKMIDVLVNIEELLQIPEKIEENIRKENFHQVQILLERGFILMNNKSLKTVEILKPINQQLELQEHLLFNNLIEEIHDIMYSKSNKTNFTRVTNNDIFKIISISHNGFTSLENYLYNIVNIDIMEHSKTINKNLEQFIHDQSLNKGNIMLQENAATQAPLAPSRNQENEGFNRIGFLLKTINNINKLPVAFNIITERAKEEIHNIIVKSTESIRSKHPSLLKMATSLKNDNHFGLPVQDILSIILRECFWEIFLKLLYAIQCHRAIFEMSNILQPTSSAKPAFKFNKIWGKLLDEIELLLVRYINDPELISSNNGSIKPINGATNNAPTLPKRKNPKIFSLEYNIEDNSSVKDQAFELKALLKDIFPGFSVSSNMDLDSIYVKDESFEQDEPLVPPSVFNMKVILDPFLLFTQSTSTIVPSVLTQNTISSLTFFDDYMNKSFLPKIQMTMDYLFTVEVESNNPYALELSDENHNIFKTALDFQRLFYNLLNVFNTANTFREKISYCILDLLNHFYNYYLGLFNSLIGTSDRHLTRKIITAWLQNGILMDQEQKILNGDETLFHEESIELFKEIPHFYQAGKGLSKSDLFNNLTLDTILQFSASVLWILNWLPGLKKAINIDEVSQEPMLDADRLRSSWTFSESMDLNYSNPSSSPNSLGNLKILLDDKASKKFDETIDGFKTLKFKLITILRFNIRALCIYDIGSFFQNTKIWNMDVGSIELDQNIASLISELRRTESKLKQQLPEKEKNSIFIGLDIVNNYALIKGAKSIKVLNHNGIKKMLRNVNVLQHAYRNLSSEPSKINMNVTMNFYSLCGSSEAELFEYIKDNELPHCSVEDLKTILRLQFSEEMHRQLKRQSTSSTKGSIKPSNKRYTEALEKLSNLEKEQSKEGARTKIGKLKSKLNAVHTANEK | 1.475 | 0.1 | 1.322 | 0.1 | 1.322 | 0.1
YER008C (protein, UniProt P33332 1-1336, looked up) Exocyst complex component SEC3: MRSSKSPFKRKSHSRETSHDENTSFFHKRTISGSSAHHSRNVSQGAVPSSAPPVSGGNYSHKRNVSRASNSSQTSNFLAEQYERDRKAIINCCFSRPDHKTGEPPNNYITHVRIIEDSKFPSSRPPPDSKLENKKKRLLILSAKPNNAKLIQIHKARENSDGSFQIGRTWQLTELVRVEKDLEISEGFILTMSKKYYWETNSAKERTVFIKSLITLYIQTFEGHVPELVNWDLSLFYLDERSYQRAVITNRPGSVSPIKSPTSNFTTNTTQSVGSVPFSAPTERTRRSETESVNPVSTPASVEYHAGMKSLNKAPYSSNSTLNEVNKRYELEQQQQQEEAELRRLEEQKRLQLQKENEMKRLEEERRIKQEERKRQMELEHQRQLEEEERKRQMELEAKKQMELKRQRQFEEEQRLKKERELLEIQRKQREQETAERLKKEEQEALAKKEEEEKSKRNKVDNESYTQEINGKVDNLLEDLNAVLAEETETTPTMQNGTYVPERSTARAHDQLKKPLNIAKVESLGGSDLNDSISLSDEIAGLNTSNLSGEDQDEKNDLSFEKGDEVRYSNNFEGEAPHVYHEVSIIQEEAPAVSQKLILPEENNESEALIESKEEIKTMENIDDEVLLEILTDINWSIEDDADSMIERIDLRLAETEYLFNQNLLSLQKIGPNIRPYEDKVNDECHRIIPTLSLFLMEMSNFSNDIENVESQDNGLQVESANKKLLWNTLDELLKTVSLDEISLNQLLECPIREKNLPWMENQLNLLLKAFQAIGSDGNEVEYNLREISGLKQRLQFYEKVTKIFLNRIVEEMQKKFSNIRGQDISHDQMIRILTTLLIFSPLILFCKEISQKSYQAIVENWNVSIQPVYMELWTKKISQLQGIDTNDEKMNELSLSQLLNEWDTFRKERKTNDINPVFKNSFSLLTECLQTMRQECIVYQNFVEVFFHISSKHNFEEYIKHFNDPDAPPILLDTVKVMQSDREAAVIETQLVSRIFQPIVTRLSSYFVELVKAEPTVAPALTFYLENEIKSLESSNHEFLLSAVTRMYTQIKQVWSDNVEEQVLHFERISNATTNGEILPGILDLPVGLKNSEDLFQFAKRSMDIKDTDEGYESIELMNSSFRKLSIAATRSITHKEVNSSINPNLSDTAALNNDYMETISLLVNSNWLTEMLSMLNFNKDGIFDTSLQNVKKVFDVEKESYASFLLRDTMPKLTAFVYGVSNIIENTNNVNMTNPSRWAAYSRQNLENILLAYTSHEIETLVKRLHTHMVNDFGYHQENAINNVLCDKLWSCIQGQTVSLYLKLYTVIDKHYRGTNIRFTKNDIISAFEEYKNA | 1.509 | 2.5 | 1.89 | 0.1 | 1.89 | 0.1
YDL225W (protein, UniProt Q07657 2-551, looked up) Seventh homolog of septin 1: STASTPPINLFRRKKEHKRGITYTMLLCGPAGTGKTAFANNLLETKIFPHKYQYGKSNASISSNPEVKVIAPTKVVSFNSKNGIPSYVSEFDPMRANLEPGITITSTSLELGGNKDQGKPEMNEDDTVFFNLIMTHGIGENLDDSLCSEEVMSYLEQQFDIVLAEETRIKRNPRFEDTRVHVALYFIEPTGHGLREVDVELMKSISKYTNVLPIITRADSFTKEELTQFRKNIMFDVERYNVPIYKFEVDPEDDDLESMEENQALASLQPFAIITSDTRDSEGRYVREYPWGIISIDDDKISDLKVLKNVLFGSHLQEFKDTTQNLLYENYRSEKLSSVANAEEIGPNSTKRQSNAPSLSNFASLISTGQFNSSQTLANNLRADTPRNQVSGNFKENEYEDNGEHDSAENEQEMSPVRQLGREIKQENENLIRSIKTESSPKFLNSPDLPERTKLRNISETVPYVLRHERILARQQKLEELEAQSAKELQKRIQELERKAHELKLREKLINQNKLNGSSSSINSLQQSTRSQIKKNDTYTDLASIASGRD | 2.276 |  | 2.78 | 0.1 | 2.78 | 
YLR314C (protein, UniProt P32457 2-520, looked up) Cell division control protein …: SLKEEQVSIKQDPEQEERQHDQFNDVQIKQESQDHDGVDSQYTNGTQNDDSERFEAAESDVKVEPGLGMGITSSQSEKGQVLPDQPEIKFIRRQINGYVGFANLPKQWHRRSIKNGFSFNLLCVGPDGIGKTTLMKTLFNNDDIEANLVKDYEEELANDQEEEEGQGEGHENQSQEQRHKVKIKSYESVIEENGVKLNLNVIDTEGFGDFLNNDQKSWDPIIKEIDSRFDQYLDAENKINRHSINDKRIHACLYFIEPTGHYLKPLDLKFMQSVYEKCNLIPVIAKSDILTDEEILSFKKTIMNQLIQSNIELFKPPIYSNDDAENSHLSERLFSSLPYAVIGSNDIVENYSGNQVRGRSYPWGVIEVDNDNHSDFNLLKNLLIKQFMEELKERTSKILYENYRSSKLAKLGIKQDNSVFKEFDPISKQQEEKTLHEAKLAKLEIEMKTVFQQKVSEKEKKLQKSETELFARHKEMKEKLTKQLKALEDKKKQLELSINSASPNVNHSPVPTKKKGFLR | 4.381 |  | 1.7566 | 0.5003 | 3.511 | 
YJR076C (protein, UniProt P32458 2-415, looked up) Cell division control protein …: SGIIDASSALRKRKHLKRGITFTVMIVGQSGSGRSTFINTLCGQQVVDTSTTILLPTDTSTEIDLQLREETVELEDDEGVKIQLNIIDTPGFGDSLDNSPSFEIISDYIRHQYDEILLEESRVRRNPRFKDGRVHCCLYLINPTGHGLKEIDVEFIRQLGSLVNIIPVISKSDSLTRDELKLNKKLIMEDIDRWNLPIYNFPFDEDEISDEDYETNMYLRTLLPFAIIGSNEVYEMGGDVGTIRGRKYPWGILDVEDSSISDFVILRNALLISHLHDLKNYTHEILYERYRTEALSGESVAAESIRPNLTKLNGSSSSSTTTRRNTNPFKQSNNINNDVLNPASDMHGQSTGENNETYMTREEQIRLEEERLKAFEERVQQELLLKRQELLQREKELREIEARLEKEAKIKQEE | 2.021 | 1.374 | 1.843 | 0.5753 | 3.2032 | 

Reference: publication PMC7954794, “Protein context shapes the specificity of SH3 domain-mediated interactions in vivo” (Nature Communications, 2021)
